Source: patent US20250361317A1 (Janssen / Centocor, published 2025)

Assays:
[1] = biological target: T1, human EMR2 (ADGRE2, CD312) on cells (human, UniProt Q9UHX3 24-823); experiment: cell-based or functional assay
T1 sequence: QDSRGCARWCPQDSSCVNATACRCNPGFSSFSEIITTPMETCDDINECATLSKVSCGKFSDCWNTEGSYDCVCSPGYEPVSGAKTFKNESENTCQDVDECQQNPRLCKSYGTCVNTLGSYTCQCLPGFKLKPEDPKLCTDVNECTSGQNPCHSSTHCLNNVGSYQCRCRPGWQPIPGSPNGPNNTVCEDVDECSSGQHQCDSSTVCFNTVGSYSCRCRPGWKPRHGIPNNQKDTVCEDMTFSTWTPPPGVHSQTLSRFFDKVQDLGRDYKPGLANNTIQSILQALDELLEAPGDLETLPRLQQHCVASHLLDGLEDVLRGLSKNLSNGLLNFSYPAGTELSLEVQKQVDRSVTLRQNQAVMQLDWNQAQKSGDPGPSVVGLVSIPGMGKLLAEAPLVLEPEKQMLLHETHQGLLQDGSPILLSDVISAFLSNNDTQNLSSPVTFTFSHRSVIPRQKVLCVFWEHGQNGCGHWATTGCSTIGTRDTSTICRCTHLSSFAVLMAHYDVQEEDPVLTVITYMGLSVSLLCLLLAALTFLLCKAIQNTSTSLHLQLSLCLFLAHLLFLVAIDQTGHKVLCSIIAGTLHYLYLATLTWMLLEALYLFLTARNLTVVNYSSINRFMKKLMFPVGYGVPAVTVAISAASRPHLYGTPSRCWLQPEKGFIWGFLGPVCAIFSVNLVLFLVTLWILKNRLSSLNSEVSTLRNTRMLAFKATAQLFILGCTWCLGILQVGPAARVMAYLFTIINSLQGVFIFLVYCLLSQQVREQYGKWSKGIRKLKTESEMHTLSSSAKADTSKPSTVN

[2] = biological target: T2, T-cell receptor with TRBV19 (Vβ17) beta chain on human T cells (human); experiment: cell-based or functional assay
T2 sequence (A0A075B6N1 22-114): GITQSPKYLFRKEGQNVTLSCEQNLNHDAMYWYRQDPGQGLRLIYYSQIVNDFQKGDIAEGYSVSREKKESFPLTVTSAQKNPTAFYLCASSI

FcRn (cyno) = biological target: T3, FcRn (cyno) (cynomolgus monkey, UniProt Q8SPV9 24-297; Q8SPW0 21-119); experiment: FcRn binding (cyno, pH 6)
T3 construct: also called neonatal Fc receptor, cynomolgus monkey
T3 sequence (Q8SPV9 24-297 limits assumed, chain 1 of 2): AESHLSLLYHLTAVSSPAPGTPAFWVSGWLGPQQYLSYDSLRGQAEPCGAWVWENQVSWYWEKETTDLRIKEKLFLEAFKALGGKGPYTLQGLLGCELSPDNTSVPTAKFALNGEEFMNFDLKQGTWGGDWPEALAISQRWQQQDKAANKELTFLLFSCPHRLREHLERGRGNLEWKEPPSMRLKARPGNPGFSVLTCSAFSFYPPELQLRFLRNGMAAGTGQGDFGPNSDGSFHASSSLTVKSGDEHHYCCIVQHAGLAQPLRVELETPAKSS
T3 sequence (Q8SPW0 21-119 limits assumed, chain 2 of 2): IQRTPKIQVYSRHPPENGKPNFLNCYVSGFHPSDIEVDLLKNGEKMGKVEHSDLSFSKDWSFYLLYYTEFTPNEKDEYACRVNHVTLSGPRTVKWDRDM

[3] = biological target: T4, EMR2W4, huEMR2 GAIN domain + GPS, D261-T540, with C-terminal Avi/6x His tag (human); experiment: SPR protein binding (human), binding to EMR2W4
T4 construct: also called Human EMR2 GAIN domain protein
T4 chain: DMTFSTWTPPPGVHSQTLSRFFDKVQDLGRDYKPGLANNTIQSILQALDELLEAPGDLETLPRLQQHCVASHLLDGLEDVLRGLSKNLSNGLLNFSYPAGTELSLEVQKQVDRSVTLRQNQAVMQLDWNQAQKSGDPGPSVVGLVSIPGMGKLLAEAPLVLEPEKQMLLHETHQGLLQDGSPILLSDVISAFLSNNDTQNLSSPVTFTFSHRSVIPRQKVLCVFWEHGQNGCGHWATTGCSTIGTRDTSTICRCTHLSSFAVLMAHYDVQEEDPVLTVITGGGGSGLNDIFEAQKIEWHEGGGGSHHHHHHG

[4] = biological target: T4, EMR2W4, huEMR2 GAIN domain + GPS, …; experiment: SPR, EMR2 arm, forced degradation study: Release
[5] = biological target: T4, EMR2W4, huEMR2 GAIN domain + GPS, …; experiment: SPR, EMR2 arm, forced degradation study: chemical oxidation
[6] = biological target: T2, T-cell receptor with TRBV19 (Vβ17) beta …; experiment: flow cytometry, percent TRBV19+ of live pan-T cells, Donor 1, 1 hour, 37 °C
[7] = biological target: T2, T-cell receptor with TRBV19 (Vβ17) beta …; experiment: flow cytometry, percent TRBV19+ of live pan-T cells, Donor 3, 1 hour, 37 °C
[8] = biological target: T2, T-cell receptor with TRBV19 (Vβ17) beta …; experiment: flow cytometry, percent TRBV19+ of live pan-T cells, Donor 5, 1 hour, 37 °C
[9] = biological target: T4, EMR2W4, huEMR2 GAIN domain + GPS, …; experiment: SPR, row 'SPR (KD) / EMR2' of the Forced Degradation table; first sample batch (in PBS); stress condition of the KD and EMR2 construct not named on the sheet

B1: EMVBB8 (EMR2 x TRBV19 bispecific antibody) (bispecific antibody, human IgG1, kappa, L234A L235A)
heavy 1: DIQMTQSPSSLSASVGDRVTITCRSSQSLVHSNRNTYLHWYQQKPGCAPKLLIYKVSNRFSGVPSRFSGSGSGTDFTLTISSLQPEDFATYYCSQSTHVPFTFGQGTKLEIKGGGSGGSGGCPPCGGSGGQVQLQESGPGLVKPSETLSLTCTVSGYSITSGYFWNWIRQFPGKGLEWMGYISYDGSNNYNPSLKSRITISRDTSKNQFSLKLSSVTAADTAVYYCASPSPGTGYAVDYWGCGTTVTVSSEPKSSDKTHTCPPCPAPEAAGGPSVFLFPPKPKDTLMISRTPEVTCVVVSVSHEDPEVKFNWYVDGVEVHNAKTKPREEQYNSTYRVVSVLTVLHQDWLNGKEYKCKVSNKALPAPIEKTISKAKGQPREPQVYTLPPSREEMTKNQVSLWCLVKGFYPSDIAVEWESNGQPENNYKTTPPVLDSDGSFFLYSKLTVDKSRWQQGNVFSCSVMHEALHNHYTQKSLSLSPGK
heavy 2: EVQLVESGGGLVQPGGSLRLSCTASGFTFSRYSMNWVRQAPGEGLEWVSYISSSSNTIYYADSVKGRFTISRDNAKNSLYLQMNSLRDEDTAVYYCARDQGTPFDYWGQGTLVTVSSASTKGPSVFPLAPSSKSTSGGTAALGCLVKDYFPEPVTVSWNSGALTSGVHTFPAVLQSSGLYSLSSVVTVPSSSLGTQTYICNVNHKPSNTKVDKKVEPKSCDKTHTCPPCPAPEAAGGPSVFLFPPKPKDTLMISRTPEVTCVVVSVSHEDPEVKFNWYVDGVEVHNAKTKPREEQYNSTYRVVSVLTVLHQDWLNGKEYKCKVSNKALPAPIEKTISKAKGQPREPQVYTLPPSREEMTKNQVSLSCAVKGFYPSDIAVEWESNGQPENNYKTTPPVLDSDGSFFLVSKLTVDKSRWQQGNVFSCSVMHEALHNRFTQKSLSLSPGK
light: EIVLTQSPSSVSASIGDRVTITCRASQDISSWLGWYQQKPGKAPKLLIYAAISLQSGVPSRFSGSESGTDFTLTISSLQPEDFATYYCHQANSFPLTFGGGTKVEIKRTVAAPSVFIFPPSDEQLKSGTASVVCLLNNFYPREAKVQWKVDNALQSGNSQESVTEQDSKDSTYSLSSTLTLSKADYEKHKVYACEVTHQGLSSPVTKSFNRGEC
notes: also called the bispecific antibody
Cytotoxicity, EC50 (nM), 24 hours, PBMC + OCI-AML3 [1]: 0.02 nM | Cytotoxicity, EC50 (nM), 48 hours, PBMC + OCI-AML3 [1]: 0.01 nM | Cytotoxicity, EC50 (nM), 72 hours, PBMC + OCI-AML3 [1]: 0.004 nM | Cytotoxicity, EC50 (nM), 96 hours, PBMC + OCI-AML3 [1]: 0.003 nM | Cytotoxicity, EC50 (nM), 120 hours, PBMC + OCI-AML3 [1]: 0.004 nM | Pan-T-cell activation (CD25), EC50 (nM), 24 hours, PBMC + OCI-AML3 [2]: 0.02 nM | Pan-T-cell activation (CD25), EC50 (nM), 48 hours, PBMC + OCI-AML3 [2]: 0.01 nM | Pan-T-cell activation (CD25), EC50 (nM), 72 hours, PBMC + OCI-AML3 [2]: 0.01 nM | Pan-T-cell activation (CD25), EC50 (nM), 96 hours, PBMC + OCI-AML3 [2]: 0.01 nM | Pan-T-cell activation (CD25), EC50 (nM), 120 hours, PBMC + OCI-AML3 [2]: 0.01 nM | Kd (FcRn (cyno)): 454 nM | Kd [3]: 0.193 nM | Kd [4]: 0.19 nM | Kd [5]: 0.2 nM | EC50 [6]: 7.8 nM | EC50 [7]: 6.2 nM | EC50 [8]: 9.5 nM | Kd [9]: 0.154 nM
